Test results from publication PMC11853100, “Structural analysis of extracellular ATP-independent chaperones of streptococcal species and protein substrate interactions” (mSphere, 2025).

B1: Streptococcus pneumoniae pneumolysin, recombinant (natural protein)
chain: ANKAVNDFILAMNYDKKKLLTHQGESIENRFIKEGNQLPDEFVVIERKKRSLSTNTSDISVTATNDSRLYPGALLVVDETLLENNPTLLAVDRAPMTYSIDLPGLASSDSFLQVEDPSNSSVRGAVNDLLAKWHQDYGQVNNVPARMQYEKITAHSMEQLKVKFGSDFEKTGNSLDIDFNSVHSGEKQIQIVNFKQIYYTVSVDAVKNPGDVFQDTVTVEDLKQRGISAERPLVYISSVAYGRQVYLKLETTSKSDEVEAAFEALIKGVKVAPQTEWKQILDNTEVKAVILGGDPSSGARVVTGKVDMVEDLIQEGSRFTADHPGLPISYTTSFLRDNVVATFQNSTDYVETKVTAYRNGDLLLDHSGAYVAQYYITWDELSYDHQGKEVLTPKAWDRNGQDLTAHFTTSIPLKGNVRNLSVKIRECTGLAWEWWRTVYEKTDLPLVRKRTISIWGTTLYPQVEDKVEND
notes: pneumolysin of S. pneumoniae strain R6, residues 2-471 of WP_001284359.1; pQE30 vector; In the folding assays it was denatured in 8 M urea and then diluted; also called Ply; Ply toxin
B2: Streptococcus pneumoniae PrsA (enzyme)
chain: GADLISMKGDVITEHQFYEQVKNNPSAQQVLLNMTIQKVFEKQYGSELDDKEVDDTIAEEKKQYGENYQRVLSQAGMTLETRKAQIRTSKLVELAVKKVAEAELTDEAYKKAFDEYTPDVTAQIIRLNNEDKAKEVLEKAKAEGADFAQLAKDNSTDEKTKENGGEITFDSASTEVPEQVKKAAFALDVDGVSDVITATGTQAYSSQYYIVKLTKKTEKSSNIDDYKEKLKTVILTQKQNDSTFVQSIIGKELQAANIKVKDQAFQNIFTQYIGGGDSSSSSSTSNE
notes: also called SpnPrsA; hexa-his-tagged SpnPrsA; not shown: His6, N-terminal, kept
B3: Streptococcus mutans PrsA (enzyme)
chain: ACSKTNQNSKIATMKGDTITVADFYNEVKNSTASKQAVLSLLVSKVFEKQYGDKVSDKEVTKAYNEAAKYYGDSFSSALASRGYTKEDYKKQIRSEKLIEYAVKEEAKKEITDASYKSAYKDYKPEVTAQVIQLDSEDKAKSVLEEAKADGADFAKIAKDNTKGDKTEYSFDSGSTNLPSQVLSAALNLDKDGVSDVIKASDSTTYKPVYYIVKITKKTDKNADWKAYKKRLKEIIVSQKLNDSNFRNAVIGKAFKKANVKIKDKAFSEILSQY
notes: also called SmuPrsA

What was measured:
[1] = target: T1, Streptococcus pneumoniae SlrA (Streptococcus pneumoniae strain R6, UniProt Q8DQG5 19-267); assay: MST; chaperone labelled with red NHS dye kept at 20 nM, unlabelled protein in serial dilution; pH 6.5, 0.05% Tween 20, 25 C; 1:1 model in PALMIST, 95% CI; details: both partners purified
T1 construct: also called SpnSlrA; hexa-his-tagged SpnSlrA; source: E. coli BL21 (DE3), expressed and purified similarly to Ply (Ni-NTA, dialysis); not shown: His6, N-terminal, kept

[2] = target: T1, Streptococcus pneumoniae SlrA; assay: ITC; chaperone in the syringe, Ply in the sample cell; 20 mM MES, 100 mM NaCl, 1 mM beta-mercaptoethanol, 10% glycerol, pH 6.5, 25 C; independent binding model; details: both partners purified
bovine serum albumin = target: T2, bovine serum albumin (bovine, UniProt P02769 25-607); assay: MST; chaperone labelled with red NHS dye kept at 20 nM, unlabelled protein in serial dilution; pH 6.5, 0.05% Tween 20, 25 C; 1:1 model in PALMIST, 95% CI; details: both partners purified
T2 construct: also called BSA

[3] = target: B1; assay: as above; details: both partners purified
[4] = target: B1; assay: ITC; chaperone in the syringe, Ply in the sample cell; 20 mM MES, 100 mM NaCl, 1 mM beta-mercaptoethanol, 10% glycerol, pH 6.5, 25 C; independent binding model; details: both partners purified
[5] = target: the molecule itself; assay: crystal structure; X-ray structures of SpnPrsA (2.55 A) and SmuPrsA (3.15 A); dimers in the crystal

T2 sequence (P02769 25-607): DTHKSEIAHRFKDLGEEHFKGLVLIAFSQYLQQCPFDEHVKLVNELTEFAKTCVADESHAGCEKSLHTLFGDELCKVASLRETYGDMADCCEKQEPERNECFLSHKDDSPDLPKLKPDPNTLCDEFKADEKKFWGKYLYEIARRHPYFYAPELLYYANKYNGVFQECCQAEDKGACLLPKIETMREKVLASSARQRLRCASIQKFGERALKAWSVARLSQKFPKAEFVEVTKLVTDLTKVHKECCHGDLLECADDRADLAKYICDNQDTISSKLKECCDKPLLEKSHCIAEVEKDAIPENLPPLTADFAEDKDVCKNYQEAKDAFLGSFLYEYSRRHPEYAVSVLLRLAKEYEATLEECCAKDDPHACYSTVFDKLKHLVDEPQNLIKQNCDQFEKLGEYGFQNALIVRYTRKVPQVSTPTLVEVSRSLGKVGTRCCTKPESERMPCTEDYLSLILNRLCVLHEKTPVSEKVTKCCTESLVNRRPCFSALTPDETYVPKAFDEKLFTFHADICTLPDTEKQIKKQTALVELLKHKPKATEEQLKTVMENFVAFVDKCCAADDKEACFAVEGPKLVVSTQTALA

Binder | Kd [1] [nM] | Ka [2] [M⁻¹] | Kd [2] [nM] | Kd (bovine serum albumin) [nM] | Kd [3] [nM] | Ka [4] [M⁻¹] | Kd [4] [nM] | dH [4] [kcal/mol] | stoichiometry N [4] | binding result [5]
B1 | 60 | 1.23e+07 | 81.2 ± 18 | – | – | – | – | – | – | –
B2 | – | – | – | 62000 ± 58000 | 70 | 8.38e+06 | 119 ± 25.9 | -100 ± 3.74 | 1.85 | binds
B3 | – | – | – | – | – | – | – | – | – | binds
